This note sets out measurements from paper PMC7710356, “RNF41 regulates the damage recognition receptor Clec9A and antigen cross-presentation in mouse dendritic cells” (eLife, 2020).

The target of assay [1] is T1, FLAG-tagged recombinant human CLEC9A ecto-domains (hCLEC9A-ecto) (human, UniProt Q6UXN8 57-241).
T1 construct: human CLEC9A, full extracellular region (ecto) including the CTLD and stalk; also called human wild-type CLEC9A
The experiment in a line: ELISA; plates coated with GST-RNF41-C, GST-RNF41-RBC or GST (10 μg/ml); FLAG-tagged Clec ectodomains 10 to 0.04 μg/ml in solution; detected with anti-FLAG HRP. As to conditions: both partners purified. A general note: In an ELISA, binding on a coated surface is turned into a signal by an enzyme label.

Assay [2] deals with T2, mutant CLEC9A ectodomain (hCLEC9A W131A, W227A) (human, UniProt Q6UXN8 57-241, W131A | W227A).
T2 construct: human CLEC9A extracellular region (ecto) with W131A and W227A in the CTLD; Same construct as m2 with the two tryptophan mutations; also called hCLEC9A-ecto (W->A); hCLEC9A-ecto W->A
T2 sequence (Q6UXN8 57-241 W131A/W227A): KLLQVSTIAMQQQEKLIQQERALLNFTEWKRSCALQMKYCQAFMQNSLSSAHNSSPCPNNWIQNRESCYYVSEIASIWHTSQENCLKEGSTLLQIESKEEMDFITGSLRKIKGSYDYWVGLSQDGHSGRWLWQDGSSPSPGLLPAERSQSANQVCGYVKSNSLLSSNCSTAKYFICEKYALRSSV
The assay is described as above. The conditions noted are these: both partners purified.

T1 sequence (Q6UXN8 57-241): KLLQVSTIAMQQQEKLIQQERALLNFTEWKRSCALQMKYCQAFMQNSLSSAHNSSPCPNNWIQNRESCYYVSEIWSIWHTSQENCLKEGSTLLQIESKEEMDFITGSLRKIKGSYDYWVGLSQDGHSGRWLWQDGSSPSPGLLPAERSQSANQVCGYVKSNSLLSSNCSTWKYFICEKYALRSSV

B1: GST-tagged RNF41 C-terminal domain (RNF41-C) (domain or fragment, human, UniProt Q9H4P4 169-317, looked up)
chain: DIQLLKAYMRAIRSVNPNLQNLEETIEYNEILEWVNSLQPARVTRWGGMISTPDAVLQAVIKRSLVESGCPASIVNELIENAHERSWPQGLATLETRQMNRRYYENYVAKRIPGKQAVVVMACENQHMGDDMVQEPGLVMIFAHGVEEI
notes: RNF41 C-terminal domain; region 169-DIQL…VEEI-317; Cloned into a modified pGEX-2T vector; also called GST-RNF41-C; source: E. coli BL21 DE3, purified (Glutathione-Sepharose, SEC)
Take B1: the binding result in assay [1] and in assay [2] was “binds” in each case.
